{"source": "patent US10117953B2", "about": "“Antibody drug conjugates” (Novartis AG, priority 2013, dated 2018)", "key": {"[1]": {"tested_on": "cKIT phosphorylation in Mo7e and GIST T-1 cells", "assay": "Western blot for agonistic properties (15 minutes treatment)", "type": "cell-based, human", "details": "5 ug/ml", "procedure": "To evaluate the potential agonistic properties of cKIT ADCs, 2×10^6 of GIST T-1 (kindly provided by Dr. Takahiro Taguchi, Kochi U., Japan) or Mo7e (DSMZ, ACC-104) cells were serum starved overnight at 37° C. with 5% CO2 (DMEM for GIST T-1 and RPMI for Mo7e supplemented with 0.1% FBS) in 6-well plate (NUNC catalog #14067). […] One well was designated as untreated (UT). Cells were harvested in 1 ml PBS. […] Lysates were then spun down for 40 mins at 12,000 rpm at 4° C. 20 μg of each sample was boiled for 10 min at 75° C. and loaded on a 12-well NuPAGEO 4-12% Bis-Tris gel (Life Technologies, NP0322BOX, Carlsbad, Calif.). After protein transfer to membrane blots, membranes were blocked in TBST-5% milk at room temperature for 1 hour and then probed with primary antibodies overnight at 4° C. Blots were washed in TBST (4×5 mins) on the next day. Blots were incubated in the secondary antibody (goat-anti rabbit-HRP 1:30,000, Santa Cruz) for 1 hr at room temperature. Blots were washed in TBST (4×5 mins) and developed. […]"}, "[2]": {"tested_on": "surface cKIT on GIST-T1 cells", "sequence (P10721 26-509 limits assumed)": "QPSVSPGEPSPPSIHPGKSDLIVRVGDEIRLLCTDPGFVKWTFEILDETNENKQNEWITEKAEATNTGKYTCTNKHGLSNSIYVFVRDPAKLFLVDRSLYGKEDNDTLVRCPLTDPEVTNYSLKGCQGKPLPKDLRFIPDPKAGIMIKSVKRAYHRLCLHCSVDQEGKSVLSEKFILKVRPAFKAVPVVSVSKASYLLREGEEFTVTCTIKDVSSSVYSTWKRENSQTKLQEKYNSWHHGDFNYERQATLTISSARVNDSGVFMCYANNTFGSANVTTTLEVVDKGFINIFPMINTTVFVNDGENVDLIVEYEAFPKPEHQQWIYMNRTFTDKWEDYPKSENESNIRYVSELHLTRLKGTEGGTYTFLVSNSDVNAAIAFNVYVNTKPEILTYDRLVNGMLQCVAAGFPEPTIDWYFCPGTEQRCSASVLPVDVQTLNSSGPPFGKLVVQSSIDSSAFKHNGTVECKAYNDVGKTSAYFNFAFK", "assay": "Ab-mediated internalization of surface cKIT by flow cytometry", "type": "cell-based, human", "details": "10 ug/ml, 30 min to 24 hr at 37° C.", "procedure": "The kinetics of cKIT antibody mediated internalization was evaluated by treating with antibody in a cell monolayer using a temperature shift method and flow cytometry readout. GIST-T1 (kindly provided by Dr. Takahiro Taguchi, Kochi U., Japan) cells were seeded at 2.5×10E5 cells/well in five 12-well tissue culture treated plates (BD Falcon 353043). The cells were incubated in a tissue culture incubator at 37° C. with 5% CO2 overnight. The following day medium was removed and replaced with 450 ul fresh medium. […] All cells were incubated for 1 hr on ice, followed by two washes with 1 mL 1× Phosphate buffered saline (PBS) and resuspended in 500 μl cell culture medium. Plates #2-5 were transferred to 37° C. and harvested at time points; 30 min, 2 hr, 4 hr and 24 hr at 37° C. with 5% CO2. 100 μl of cell dissociation buffer (Gibco Cat#13150-016, Life Technologies, Carlsbad, Calif.) was added to plate#1 (4° C. binding control) and incubated at 37° C. until cells were detached. […] The following day, all samples were analyzed using the BD FACSCanto II® equipment using a HTS system (BD Biosciences, San Jose, Calif.). Samples were analyzed with FlowJo software to obtain the Geometric Mean values of fluorescence for the Phyeoerythrin channel, FIG. 13A is a plot of % of initial cell surface binding vs […] at 37° C.×100."}, "[3]": {"target": "T1, human cKIT ECD (Homo sapiens, UniProt P10721)", "T1 construct": "Human cKIT tr. variant 2 , residues 26-520-TAG; His6 (C); made in house; host or cells: HEK293 derived cell lines (293FS), transient transfection", "T1 sequence (P10721 26-520 isoform P10721-2)": "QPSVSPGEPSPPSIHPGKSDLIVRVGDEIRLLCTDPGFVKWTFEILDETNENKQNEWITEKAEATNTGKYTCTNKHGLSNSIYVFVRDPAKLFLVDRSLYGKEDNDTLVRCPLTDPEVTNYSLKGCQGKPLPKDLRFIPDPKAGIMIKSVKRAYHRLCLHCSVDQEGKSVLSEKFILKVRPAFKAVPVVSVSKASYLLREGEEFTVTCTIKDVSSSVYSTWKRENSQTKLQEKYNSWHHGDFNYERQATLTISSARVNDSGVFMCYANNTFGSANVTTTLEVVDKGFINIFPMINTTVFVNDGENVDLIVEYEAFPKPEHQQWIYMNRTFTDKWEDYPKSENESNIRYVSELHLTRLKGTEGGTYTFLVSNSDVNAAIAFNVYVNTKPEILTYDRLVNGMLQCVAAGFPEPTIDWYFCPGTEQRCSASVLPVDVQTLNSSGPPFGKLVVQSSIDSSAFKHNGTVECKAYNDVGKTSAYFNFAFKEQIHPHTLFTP", "assay": "SPR (Biacore 2000) affinity measurement", "type": "binding", "details": "Table 5", "procedure": "Affinity of the antibodies to cKIT species orthologues and also to cKIT was determined using SPR technology using a Biacore® 2000 instrument (GE Healthcare, Pittsburgh, Pa.) and with CM5 sensor chips.\nBriefly, HBS-P (0.01 M HEPES, pH 7.4, 0.15 M NaCl, 0.005% Surfactant P20) supplemented with 2% Odyssey® blocking buffer (Li-Cor Biosciences, Lincoln, Nebr.) was used as the running buffer for all the experiments. The immobilization level and analyte interactions were measured by response unit (RU). Pilot experiments were performed to test and confirm the feasibility of the immobilization of the anti-human Fc antibody (Catalog number BR100839, GE Healthcare, Pittsburgh, Pa.) and the capture of the test antibodies.\nFor kinetic measurements, the experiments were performed in which the antibodies were captured to the sensor chip surface via the immobilized anti-human Fc antibody and the ability of the cKIT proteins to bind in free solution was determined. Briefly, 25 μg/ml of anti-human Fc antibody at pH 5 was immobilized on a CM5 sensor chip through amine coupling at flow rate of 5 μl/minute on all two flow cells to reach 10,500 RUs. 0.1-1 μg/ml of test antibodies were then injected at 10 μl/min for 1 minute. Captured levels of the antibodies were generally kept below 200 RUs. […]"}}, "data": [{"molecule": "NEG085: anti-cKIT antibody of Table 1; VH SEQ ID NO 82, VL SEQ ID NO 91; derived from 9P3 (antibody, V domains shown) VH: EVQLVESGGGLVQPGGSLRLSCAASGFAFSGYYMAWVRQAPGKGLEWVANINYPGSSTYYLDSVKGRFTISRDNAKNSLYLQMNSLRAEDTAVYYCARGDYYGTTYWYFDVWGQGTTVTVSS VL: DIQMTQSPSSLSASVGDRVTITCRASQSISSYLNWYQQKPGKAPKLLIYYTSRLQSGVPSRFSGSGSGTDFTLTISSLQPEDFATYYCQQGRRLWSFGGGTKVEIK", "values": [{"measurement": "downstream signaling (phospho ERK, phospho AKT)", "setting": "[1]", "value": "downstream signaling pathways are not affected"}, {"measurement": "phosphorylation of cKIT", "setting": "[1]; absence of ligand (SCF)", "value": "can mediate phosphorylation of cKIT in the absence of ligand (SCF)"}, {"measurement": "internalization after binding cKIT on the cell surface", "setting": "[2]", "value": "rapidly internalized into the cell"}, {"measurement": "reaction with human cKIT", "setting": "[3]", "value": "nanomolar level"}]}]}
